Experimental data as given in patent US20230265187A1 (published 2023).
Numbering of substitutions follows the chain as printed. Values belong to the binder of their own block, whether it stands above or below them.

Tests used:
[1] = molecular target: T1, human TIGIT on Jurkat cells (TIGIT/NFAT reporter Jurkat cells, BPS Bioscience #60538); Promega TIGIT Effector … (human, UniProt Q495A1 22-244); assay: flow cytometry, TIGIT/NFAT Jurkat cells, 10 ug/ml
T1 construct: whole, on cells; Same protein on two bought Jurkat lines (flow cytometry: BPS; bioassay: Promega); also called hu TIGIT cells; cells expressing human TIGIT
T1 sequence (looked up): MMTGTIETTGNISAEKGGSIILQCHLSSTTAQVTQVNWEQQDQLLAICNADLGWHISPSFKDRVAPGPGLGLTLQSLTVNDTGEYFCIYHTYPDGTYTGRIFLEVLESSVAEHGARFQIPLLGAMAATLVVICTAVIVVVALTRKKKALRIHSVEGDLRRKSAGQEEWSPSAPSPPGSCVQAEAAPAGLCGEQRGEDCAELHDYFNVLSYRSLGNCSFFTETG

[2] = molecular target: T2, His-tagged cynomolgus monkey TIGIT (Acro Biosystems #TIT-05223) (cynomolgus monkey, UniProt A0A7N9I9V4 89-209); assay: ELISA, coated His-TIGIT, 1 ug/ml
T2 construct: Bought protein; also called cyno TIGIT; cynomolgus TIGIT; not shown: His tag

[3] = molecular target: T3, his-tagged murine TIGIT (Acro Biosystems #TIT-M52E6) (murine, UniProt P86176 29-148, limits assumed); assay: ELISA, coated His-TIGIT, 1 ug/ml
T3 construct: Bought protein; also called mouse his-tagged TIGIT; not shown: his tag
T3 sequence (looked up): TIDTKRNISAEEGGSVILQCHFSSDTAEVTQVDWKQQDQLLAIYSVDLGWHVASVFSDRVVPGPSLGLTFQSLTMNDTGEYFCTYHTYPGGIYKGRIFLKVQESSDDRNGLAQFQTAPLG

[4] = molecular target: T4, his-tagged human TIGIT (Acro Biosystems #TIT-H52H3) (human, UniProt Q495A1 22-141); assay: ELISA, coated His-TIGIT, 1 ug/ml
T4 construct: Bought protein; also called His-tagged-TIGIT (human); not shown: his tag
T4 sequence (looked up): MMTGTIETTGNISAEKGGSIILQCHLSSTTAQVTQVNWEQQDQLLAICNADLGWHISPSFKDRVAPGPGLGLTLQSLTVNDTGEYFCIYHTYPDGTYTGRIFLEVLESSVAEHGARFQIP

[5] = molecular target: T2, His-tagged cynomolgus monkey TIGIT …; assay: SPR (Carterra LSA), scFv-Fc captured, His-TIGIT analyte
In short: (§1)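 SPR: scFv-Fc from supernatants (diluted 30-fold in HBSTE) captured on anti-human Fc-coupled HC30M chip; His-tagged TIGIT injected as 1:2 dilution series. Kinetic affinities fitted from sensorgrams.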

[6] = molecular target: T3, his-tagged murine TIGIT (Acro …); assay: as above
In short: as §1

[7] = molecular target: T4, his-tagged human TIGIT (Acro Biosystems …); assay: as above
In short: as §1

[8] = molecular target: T2, His-tagged cynomolgus monkey TIGIT …; assay: SPR (Carterra LSA), scFv-Fc captured, His-TIGIT analyte; repeat
Protocol: (§2) Binding affinities of anti-TIGIT antibodies to human, cyno, and murine TIGIT were measured by Surface Plasmon Resonance (SPR) on a Carterra LSA instrument. Goat anti-human Fc antibody was amine coupled to a HC30M chip. ScFv-Fc supernatants were diluted 30-fold with HBSTE and were captured by the anti-human Fc coupled HC30M chip. A 1:2 dilution series of his-tagged human TIGIT, starting at 400 nM, was injected onto the chip for binding. A dilution series was also carried out for cyno TIGIT and murine TIGIT. Data were analyzed using the Carterra™ Kinetics software.

[9] = molecular target: T3, his-tagged murine TIGIT (Acro …); assay: as above
Protocol: as §2

[10] = molecular target: T1, human TIGIT on Jurkat cells (TIGIT/NFAT …); assay: cell-based or functional assay
[11] = molecular target: T2, His-tagged cynomolgus monkey TIGIT …; assay: SPR (Carterra LSA), antibody captured, His-TIGIT analyte
[12] = molecular target: T4, his-tagged human TIGIT (Acro Biosystems …); assay: as above
[13] = molecular target: T2, His-tagged cynomolgus monkey TIGIT …; assay: SPR (Carterra LSA), antibody captured, His-TIGIT analyte; repeat

T2 sequence (A0A7N9I9V4 entry or part of it): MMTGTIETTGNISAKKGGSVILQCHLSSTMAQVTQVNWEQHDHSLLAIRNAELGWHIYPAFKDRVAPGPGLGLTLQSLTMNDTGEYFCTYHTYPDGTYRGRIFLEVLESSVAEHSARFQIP

MFI [1]: 10900 MFI | Elisa OD450 [2]: 1.8 OD450 | Elisa OD450 [3]: 1.85 OD450 | Elisa OD450 [4]: 2.03 OD450 | Kd [5]: 33 nM | Kd [6]: 235 nM | Kd [7]: 0.322 nM | Kd [8]: 16 nM | Kd [9]: 91 nM | max. signal (% of 22G2) [10]: 100 % of 22G2
B1: 43645p1.F11 (scFv, V domains shown)
VH: EVQLLESGGGLVQPGGSLRLSCAASGFTFSSYWMSWVRQAPGKGLEWVSGIHISDSTYYADSVKGRFTISRDNSKNTLYLQMNSLRAEDTAVYYCAKGHTVLQYGMDVWGQGTTVTVSS
VL: QSGLTQPPSASGTPGQRVTISCSGDISNTRNNYVSWYQQLPGTAPKLLIYRNSQRPSGVPDRFSGSKSATSASLAISGLQSEDEADYYCGTWDNTLNAWVFGGGTKLTVL

Kd [11]: 16.1 nM | Kd [12]: 0.202 nM | Kd [13]: 3.4 nM
B2: benchmark 22G2 (antibody, V domains shown)
VH: QVHLQESGPGLVKPSETLSLTCTVSGGSVSSGIYYWSWIRQPPGKGLEWIGYIYYSGSTNYNPSLKSRVTISVDTSKNQFSLKLSSVTAADTAVYYCARDYYVSGNYYNVDYYFFGVDVWGQGTTVTVSS
VL: EIVLTQSPATLSLSPGERATLSCRASQSVSSYLAWYQQKPGQAPRLLIYDASNRATGIPARFSGSGSGTDFTLTISSLEPEDFAVYYCQQRSNWPPLFTFGPGTKVDIK

MFI [1]: 10300 MFI | Elisa OD450 [2]: 0.363 OD450 | Elisa OD450 [3]: 1.85 OD450 | Elisa OD450 [4]: 1.8 OD450 | Kd [5]: 120 nM | Kd [6]: 1.14 nM | Kd [7]: 0.194 nM | Kd [8]: 114 nM | Kd [9]: 0.74 nM | max. signal (% of 22G2) [10]: 96 % of 22G2
B3: 43352p1.H8 (scFv, V domains shown)
VH: DVQLVESGGGVVRPGESLRLSCAASGFNFSTYAMNWVRQAPGEGLEWVSGISGRSSGDTTYYADSVRGWFTVSRDNSKNTLYLQMSSLRAEDTAVYYCARETWIRGYFDYWGLGTLVTVSS
VL: QSVLTQPPSASGTPGQRVTISCSGSRSNLGNNLVYWYQQLPGTAPKLLIYFNNERPSGVPDRFSGSKSGTSASLAISGVQSEDEADYYCATWDDSLNGWVFGGGTKLTVL

MFI [1]: 9110 MFI | Elisa OD450 [2]: 1.71 OD450 | Elisa OD450 [3]: 2.14 OD450 | Elisa OD450 [4]: 2 OD450 | Kd [5]: 12.2 nM | Kd [6]: 4.95 nM | Kd [7]: 0.338 nM | Kd [8]: 2 nM | Kd [9]: 2.1 nM | max. signal (% of 22G2) [10]: 127 % of 22G2
B4: 43586p1.2.F9 (scFv, V domains shown)
VH: EVQLLESGGGLVQPGGSLRLSCAASGFTFDDYVMSWVRQAPGKGLEWVSLINWNGDKTYYADSVKGRFTISRDNSKNTLYLQMNSLRAEDTAIYYCAKHWIVFQYGMDVWGRGTTVTVSS
VL: QSVLTQPPSASGTPGQRVTISCSGSISNIETKYVSWYQQLPGTAPKLLIYNSDQRPSGVPDRFSGSKSGTSASLAISGLQSEDEADYYCVSWDASLKSWVFGGGTKLTVL

MFI [1]: 9340 MFI | Elisa OD450 [2]: 1.88 OD450 | Elisa OD450 [3]: 2.04 OD450 | Elisa OD450 [4]: 2.02 OD450 | Kd [5]: 3.19 nM | Kd [6]: 6.89 nM | Kd [7]: 0.394 nM | Kd [8]: 0.582 nM | Kd [9]: 4.8 nM | max. signal (% of 22G2) [10]: 101 % of 22G2
B5: 43586p1.2.G4 (scFv, V domains shown)
VH: B4 VH with I93V, K98R, M107L, R112Q
VL: B4 VL with P8L, S25V, I26S, T31I, D53H, V90T, A94D, S95R

MFI [1]: 10100 MFI | Elisa OD450 [2]: 1.52 OD450 | Elisa OD450 [3]: 2.1 OD450 | Elisa OD450 [4]: 1.99 OD450 | Kd [5]: 14 nM | Kd [6]: 15.6 nM | Kd [7]: 0.941 nM | Kd [8]: 6.3 nM | Kd [9]: 10 nM | max. signal (% of 22G2) [10]: 96 % of 22G2
B6: 43586p1.2.G10 (scFv, V domains shown)
VH: B4 VH with G44E, Y59C, R112Q
VL: B4 VL

MFI [1]: 9530 MFI | Elisa OD450 [2]: 1.6 OD450 | Elisa OD450 [3]: 1.61 OD450 | Elisa OD450 [4]: 2.01 OD450 | Kd [5]: 87.4 nM | Kd [6]: 41.4 nM | Kd [7]: 0.558 nM | Kd [8]: 4.4 nM | Kd [9]: 0.744 nM | max. signal (% of 22G2) [10]: 102 % of 22G2
B7: 43586p2.D11 (scFv, V domains shown)
VH: B4 VH with N54S, D56G, K57T, I93V, F103Y, R112Q
VL: QSVLTQPSSASGTPGQRVAISCSGTISNIETKYVSWYKYVSWYQQLPGTAPKLLIYNNVQRPSGVPDRFSGSQSGTSASLAISGLQSEDEAHYYCASWEGGLNSWVFGGGTKLTVL
